# From patent US5578310A, “Topical bioadhesive ointment compositions and their use in wound healing” (Berlex Laboratories Inc., priority 1994, dated 1996)
# Columns and labels:
# [1] = In vivo distribution of 125I-TGFα in the GI contents from TJ-TGFα formulation on wounded cheek pouch; set-up: species or system Golden Syrian hamsters; settings: cheek pouch wound
# Source text: (§1) The TGFα-containing ointment composition of Example 2 (TJ-TGFα formulation) was subjected, both in vitro and in vivo, to evaluation to meet the therapeutical requirements for oral mucositis. The in vitro evaluation included TGFα release and extraction from the composition, autoclave sterilizability and the bioactivity and stability of TGFα in the composition. The in vivo evaluation included TGFα uptake and tissue distribution of absorbed TGFα from hamster's cheek pouch.
# (§2) B. The in vivo uptake of TGFα from the TJ-TGFα formulation was determined in Golden Syrian hamsters, female, approximately 150 g using an ^125 I-TGFα formulation (specific activity-45 μci/μg), the hamster's cheek pouch having a mechanically created wound. A pharmacokinetic study of tissue distribution of TGFα absorbed by the hamsters was also conducted. The methods employed were as follows:
# (§3) 1. Fast hamsters overnight.
# (§4) 2. Anesthetize hamsters by I.M. injection of ketamine HCl.
# (§5) 3. Create a 2 mm diameter wound on the right-hand side of hamster's cheek pouch by a biopsy punch.
# (§6) 4. Following the removal of the debridement and blood clot, administer 20 μl TJ-TGFα formulation containing 26 μci 125I-TGFα onto the wound area by a Gilson Microman.
# (§7) 5. Keep the hamsters in their cages and give no water or food during the course of 6 hours study.
# (§8) 6. Select three hamsters at time 15 minutes, 30 minutes, 1 hour, 2 hours, 4 hours and 6 hours and select one hamster at 24 hours for TGFα uptake and tissue distribution study.
# (§9) 8. Sacrifice hamster by inhalation of an overdose of carbon dioxide vapor from dry ice in a closed chamber.
# (§10) 9. Immediately after sacrificing, remove the liver, kidney, thyroid, submaxillary gland, esophagus, stomach, small intestine, cecum, colon, 25 cm^2 skin on back, tongue and right-hand side of cheek pouch.
# 10. Flush the contents of esophagus, stomach, small intestine and cecum with water and collect the contents separately into a test tube.
# (§11) 11. Count the CPM of ^125 I-TGFα that distributed in the hamster's tissue and GI contents.
# [2] = In vivo uptake and tissue distribution of 125I-TGFα from TJ-TGFα formulation on wounded cheek pouch; set-up: species or system Golden Syrian hamsters; settings: for Distribution of 125I-TGFα in the Tissues: Skin: 25 cm^2 skin on back; for Distribution of 125I-TGFα in the Tissues: Blood / Distribution of 125I-TGFα in the Tissues: Cecum / Distribution of 125I-TGFα in the Tissues: Colon / Distribution of 125I-TGFα in the Tissues: Esophagus / Distribution of 125I-TGFα in the Tissues: Kidney / Distribution of 125I-TGFα in the Tissues: Liver / Distribution of 125I-TGFα in the Tissues: Small Intestine / Distribution of 125I-TGFα in the Tissues: Stomach / Distribution of 125I-TGFα in the Tissues: Submaxillary Gland / Distribution of 125I-TGFα in the Tissues: Thyroid / Distribution of 125I-TGFα in the Tissues: Tongue: cheek pouch wound; for Distribution of 125I-TGFα in the Tissues: Cheek Pouch: right-hand side cheek pouch (application site)
# Source text: as §1, §2, §3, §4, §5, §6, §7, §8
# 7. Punch a needle into the hamster's heart and withdrawn 1 ml blood by a 5 ml syringe.
# as §9, §10, §11
substance,measurement,setting,value
^125 I-TGFα: 125I-labelled TGFα (specific activity 45 μci/μg) administered in TJ-TGFα formulation onto the hamster cheek pouch wound,Distribution of 125I-TGFα in the GI Contents: Cecum,[1]; 15 min.,0.003%
same,Distribution of 125I-TGFα in the GI Contents: Esophagus,[1]; 15 min.,0.00005%
same,Distribution of 125I-TGFα in the GI Contents: Small Intestine,[1]; 15 min.,0.003%
same,Distribution of 125I-TGFα in the GI Contents: Stomach,[1]; 15 min.,0.03%
same,Distribution of 125I-TGFα in the GI Contents: Cecum,[1]; 0.5 hrs.,0.01%
same,Distribution of 125I-TGFα in the GI Contents: Esophagus,[1]; 0.5 hrs.,0.01%
same,Distribution of 125I-TGFα in the GI Contents: Small Intestine,[1]; 0.5 hrs.,0.01%
same,Distribution of 125I-TGFα in the GI Contents: Stomach,[1]; 0.5 hrs.,0.056%
same,Distribution of 125I-TGFα in the GI Contents: Cecum,[1]; 1 hr.,0.02%
same,Distribution of 125I-TGFα in the GI Contents: Esophagus,[1]; 1 hr.,0.002%
same,Distribution of 125I-TGFα in the GI Contents: Small Intestine,[1]; 1 hr.,0.02%
same,Distribution of 125I-TGFα in the GI Contents: Stomach,[1]; 1 hr.,0.20%
same,Distribution of 125I-TGFα in the GI Contents: Cecum,[1]; 2 hrs.,0.02%
same,Distribution of 125I-TGFα in the GI Contents: Esophagus,[1]; 2 hrs.,0.01%
same,Distribution of 125I-TGFα in the GI Contents: Small Intestine,[1]; 2 hrs.,0.02%
same,Distribution of 125I-TGFα in the GI Contents: Stomach,[1]; 2 hrs.,0.40%
same,Distribution of 125I-TGFα in the GI Contents: Cecum,[1]; 4 hrs.,0.04%
same,Distribution of 125I-TGFα in the GI Contents: Esophagus,[1]; 4 hrs.,0.37%
same,Distribution of 125I-TGFα in the GI Contents: Small Intestine,[1]; 4 hrs.,0.06%
same,Distribution of 125I-TGFα in the GI Contents: Stomach,[1]; 4 hrs.,4.1%
same,Distribution of 125I-TGFα in the GI Contents: Cecum,[1]; 6 hrs.,0.05%
same,Distribution of 125I-TGFα in the GI Contents: Esophagus,[1]; 6 hrs.,0.27%
same,Distribution of 125I-TGFα in the GI Contents: Small Intestine,[1]; 6 hrs.,0.05%
same,Distribution of 125I-TGFα in the GI Contents: Stomach,[1]; 6 hrs.,7.8%
same,Distribution of 125I-TGFα in the GI Contents: Cecum,[1]; 24 hrs.,2.63%
same,Distribution of 125I-TGFα in the GI Contents: Esophagus,[1]; 24 hrs.,0.01%
same,Distribution of 125I-TGFα in the GI Contents: Small Intestine,[1]; 24 hrs.,0.52%
same,Distribution of 125I-TGFα in the GI Contents: Stomach,[1]; 24 hrs.,5.5%
same,Distribution of 125I-TGFα in the Tissues: Skin,[2]; 15 min.,0.04%
same,Distribution of 125I-TGFα in the Tissues: Blood,[2]; 15 min.,0.01%
same,Distribution of 125I-TGFα in the Tissues: Cecum,[2]; 15 min.,0.303%
same,Distribution of 125I-TGFα in the Tissues: Colon,[2]; 15 min.,0.01%
same,Distribution of 125I-TGFα in the Tissues: Esophagus,[2]; 15 min.,0.001%
same,Distribution of 125I-TGFα in the Tissues: Kidney,[2]; 15 min.,0.02%
same,Distribution of 125I-TGFα in the Tissues: Liver,[2]; 15 min.,0.03%
same,Distribution of 125I-TGFα in the Tissues: Small Intestine,[2]; 15 min.,0.01%
same,Distribution of 125I-TGFα in the Tissues: Stomach,[2]; 15 min.,0.01%
same,Distribution of 125I-TGFα in the Tissues: Submaxillary Gland,[2]; 15 min.,0.02%
same,Distribution of 125I-TGFα in the Tissues: Thyroid,[2]; 15 min.,0.005%
same,Distribution of 125I-TGFα in the Tissues: Tongue,[2]; 15 min.,0.85%
same,Distribution of 125I-TGFα in the Tissues: Cheek Pouch,[2]; 15 min.,76%
same,Distribution of 125I-TGFα in the Tissues: Skin,[2]; 0.5 hrs.,0.06%
same,Distribution of 125I-TGFα in the Tissues: Blood,[2]; 0.5 hrs.,0.02%
same,Distribution of 125I-TGFα in the Tissues: Cecum,[2]; 0.5 hrs.,0.01%
same,Distribution of 125I-TGFα in the Tissues: Colon,[2]; 0.5 hrs.,0.02%
same,Distribution of 125I-TGFα in the Tissues: Esophagus,[2]; 0.5 hrs.,0.01%
same,Distribution of 125I-TGFα in the Tissues: Kidney,[2]; 0.5 hrs.,0.07%
same,Distribution of 125I-TGFα in the Tissues: Liver,[2]; 0.5 hrs.,0.07%
same,Distribution of 125I-TGFα in the Tissues: Small Intestine,[2]; 0.5 hrs.,0.05%
same,Distribution of 125I-TGFα in the Tissues: Stomach,[2]; 0.5 hrs.,0.03%
same,Distribution of 125I-TGFα in the Tissues: Submaxillary Gland,[2]; 0.5 hrs.,0.05%
same,Distribution of 125I-TGFα in the Tissues: Thyroid,[2]; 0.5 hrs.,0.02%
same,Distribution of 125I-TGFα in the Tissues: Tongue,[2]; 0.5 hrs.,3.13%
same,Distribution of 125I-TGFα in the Tissues: Cheek Pouch,[2]; 0.5 hrs.,30%
same,Distribution of 125I-TGFα in the Tissues: Skin,[2]; 1 hr.,0.03%
same,Distribution of 125I-TGFα in the Tissues: Blood,[2]; 1 hr.,0.04%
same,Distribution of 125I-TGFα in the Tissues: Cecum,[2]; 1 hr.,0.02%
same,Distribution of 125I-TGFα in the Tissues: Colon,[2]; 1 hr.,0.04%
same,Distribution of 125I-TGFα in the Tissues: Esophagus,[2]; 1 hr.,0.01%
